Measurements published in paper doi:10.1101/2022.09.05.506423 (bioRxiv, 2022).

T1: fibrinogen Bβ chain (human) (human, UniProt P02675 31-491, N-linked glycan at N364)
T1 sequence (looked up): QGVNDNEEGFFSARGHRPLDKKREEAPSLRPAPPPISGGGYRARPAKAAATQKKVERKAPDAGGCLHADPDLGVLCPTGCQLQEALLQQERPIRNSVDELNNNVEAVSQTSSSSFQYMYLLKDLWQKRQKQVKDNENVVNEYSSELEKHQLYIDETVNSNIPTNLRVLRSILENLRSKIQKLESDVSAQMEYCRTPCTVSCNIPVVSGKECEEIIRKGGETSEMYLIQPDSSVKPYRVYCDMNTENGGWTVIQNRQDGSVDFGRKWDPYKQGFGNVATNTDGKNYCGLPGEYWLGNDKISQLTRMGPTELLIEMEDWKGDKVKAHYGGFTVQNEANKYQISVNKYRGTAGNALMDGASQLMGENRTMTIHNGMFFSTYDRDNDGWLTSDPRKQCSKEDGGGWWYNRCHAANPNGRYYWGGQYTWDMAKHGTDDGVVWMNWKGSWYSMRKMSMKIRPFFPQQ


Columns and labels:
[1] = molecular target: AαBβγ half-molecule of human fibrinogen (human) (UniProt P02671); experiment: SEC
[2] = molecular target: T1, fibrinogen Bβ chain (human); experiment: SEC

stoichiometry N [1] | binding result [2] | Molecule
2 | – | AαBβγ half-molecule of human fibrinogen (from UniProt P02671-2 20-644; P02675 31-491; P02679-2 27-437) (complex)
– | binds | fibrinogen γ chain, γ-A isoform (human) (natural protein, UniProt P02679-2 27-437, looked up, N-linked glycan at N52) YVATRDNCCILDERFGSYCPTTCGIADFLSTYQTKVDKDLQSLEDILHQVENKTSEVKQLIKAIQLTYNPDESSKPNMIDAATLKSRKMLEEIMKYEASILTHDSSIRYLQEIYNSNNQKIVNLKEKVAQLEAQCQEPCKDTVQIHDITGKDCQDIANKGAKQSGLYFIKPLKANQQFLVYCEIDGSGNGWTVFQKRLDGSVDFKKNWIQYKEGFGHLSPTGTTEFWLGNEKIHLISTQSAIPYALRVELEDWNGRTSTADYAMFKVGPEADKYRLTYAYFAGGDAGDAFDGFDFGDDPSDKFFTSHNGMQFSTWDNDNDKFEGNCAEQDGSGWWMNKCHAGHLNGVYYQGGTYSKASTPNGYDNGIIWATWKTRWYSMKKTTMKIIPFNRLTIGEGQQHHLGGAKQAGDV
